# B1: A3Bctd (193-382)-mycHis (domain or fragment)
# chain: not shown
# notes: APOBEC3B (A3B) C-terminal catalytic domain (ctd), residues 193-382; wild-type constructs match GenBank NM_004900; also called A3Bctd-mycHis; A3B-mycHis; not shown: myc, C-terminal, kept; His, C-terminal, kept
# B2: MBP-BORF2 (1 to 826) (enzyme)
# chain: MATTSHVEHELLSKLIDELKVKANSDPEADVLAGRLLHRLKAESVTHTVAEYLEVFSDKFYDEEFFQMHRDELETRVSAFAQSPAYERIVSSGYLSALRYYDTYLYVGRSGKQESVQHFYMRLAGFCASTTCLYAGLRAALQRARPEIESDMEVFDYYFEHLTSQTVCCSTPFMRFAGVENSTLASCILTTPDLSSEWDVTQALYRHLGRYLFQRAGVGVGVTGAGQDGKHISLLMRMINSHVEYHNYGCKRPVSVAAYMEPWHSQIFKFLETKLPENHERCPGIFTGLFVPELFFKLFRDTPWSDWYLFDPKDAGDLERLYGEEFEREYYRLVTAGKFCGRVSIKSLMFSIVNCAVKAGSPFILLKEACNAHFWRDLQGEAMNAANLCAEVLQPSRKSVATCNLANICLPRCLVNAPLAVRAQRADTQGDELLLALPRLSVTLPGEGAVGDGFSLARLRDATQCATFVVACSILQGSPTYDSRDMASMGLGVQGLADVFADLGWQYTDPPSRSLNKEIFEHMYFTALCTSSLIGLHTRKIFPGFKQSKYAGGWFHWHDWAGTDLSIPREIWSRLSERIVRDGLFNSQFIALMPTSGCAQVTGCSDAFYPFYANASTKVTNKEEALRPNRSFWRHVRLDDREALNLVGGRVSCLPEALRQRYLRFQTAFDYNQEDLIQMSRDRAPFVDQSQSHSLFLREEDAARASTLANLLVRSYELGLKTIMYYCRIEKAADLGVMECKASAALSVPREEQNERSPAEQMPPRPMEPAQVAGPVDIMSKGPGEGPGGWCVPGGLEVCYKYRQLFSEDDLLETDGFTERACESCQ
# notes: Epstein-Barr virus ribonucleotide reductase large subunit BORF2, residues 1 to 826, codon-optimized gene; wild-type constructs match GenBank V01555.2; Dimer in the cryo-EM structure; The MBP tag was not detected in the maps; also called EBV RNR large subunit; wild-type BORF2; source: 293T, transfected; purified (amylose resin, SEC); not shown: MBP, N-terminal, kept
# Key:
# MBP-BORF2 (1 to 826) = target: B2; assay: BLI; Octet RED; A3-mycHis proteins loaded on Ni-NTA biosensors (12.5 ug/ml A3Bctd and A3A, 8 ug/ml A3G); MBP-BORF2 200 to 6.25 nM; 20 mM tris-HCl (pH 8), 300 mM NaCl; 30°C; association 1200 s, dissociation 1800 s; 1:2 binding model; details: both partners purified
# A3Bctd (193-382)-mycHis = target: B1; assay: SEC; BORF2 and A3Bctd purified individually with affinity resins, mixed with excess A3Bctd, run on SEC; SDS-PAGE of the fractions of the major peak; 20 mM tris-HCl (pH 8), 150 mM NaCl; details: both partners purified
# [1] = target: the molecule itself; assay: cryo-EM structure; MBP-BORF2 (after amylose resin) mixed with excess purified A3Bctd-mycHis, complex isolated by SEC in 20 mM tris-HCl (pH 8), 150 mM NaCl, 1 mM TCEP; dimeric classes, C2, focused refinement
# [2] = target: the molecule itself; assay: SEC; MBP-BORF2 and mutant derivatives purified with amylose resin; approximately 150 ug of each on S200 Increase in 10 mM tris-HCl (pH 8), 150 mM NaCl; self-association (dimer to monomers)
# Chain of A3Bctd (193-382)-mycHis (Q9UH17 193-382): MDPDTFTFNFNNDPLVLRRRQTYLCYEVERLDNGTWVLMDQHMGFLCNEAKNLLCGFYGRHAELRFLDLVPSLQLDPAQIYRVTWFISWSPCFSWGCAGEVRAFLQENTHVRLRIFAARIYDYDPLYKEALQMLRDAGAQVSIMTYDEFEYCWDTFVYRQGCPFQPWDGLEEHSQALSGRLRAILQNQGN
binder,measurement,setting,value
B1,Kd,MBP-BORF2 (1 to 826),~1 nM
B2,stoichiometry N,A3Bctd (193-382)-mycHis,1
same,stoichiometry N,[1],2
"MBP-BORF2 D26R (enzyme, Epstein-Barr virus (EBV), UniProt P03190 1-826, looked up, Epstein-Barr virus BORF2, residues 1 to 826, codon-optimized gene; GenBank V01555.2; source: 293T, transfected; purified with amylose resin (SEC profiles); in lysate (co-IP); not shown: MBP, N-terminal, kept) MATTSHVEHELLSKLIDELKVKANSRPEADVLAGRLLHRLKAESVTHTVAEYLEVFSDKFYDEEFFQMHRDELETRVSAFAQSPAYERIVSSGYLSALRYYDTYLYVGRSGKQESVQHFYMRLAGFCASTTCLYAGLRAALQRARPEIESDMEVFDYYFEHLTSQTVCCSTPFMRFAGVENSTLASCILTTPDLSSEWDVTQALYRHLGRYLFQRAGVGVGVTGAGQDGKHISLLMRMINSHVEYHNYGCKRPVSVAAYMEPWHSQIFKFLETKLPENHERCPGIFTGLFVPELFFKLFRDTPWSDWYLFDPKDAGDLERLYGEEFEREYYRLVTAGKFCGRVSIKSLMFSIVNCAVKAGSPFILLKEACNAHFWRDLQGEAMNAANLCAEVLQPSRKSVATCNLANICLPRCLVNAPLAVRAQRADTQGDELLLALPRLSVTLPGEGAVGDGFSLARLRDATQCATFVVACSILQGSPTYDSRDMASMGLGVQGLADVFADLGWQYTDPPSRSLNKEIFEHMYFTALCTSSLIGLHTRKIFPGFKQSKYAGGWFHWHDWAGTDLSIPREIWSRLSERIVRDGLFNSQFIALMPTSGCAQVTGCSDAFYPFYANASTKVTNKEEALRPNRSFWRHVRLDDREALNLVGGRVSCLPEALRQRYLRFQTAFDYNQEDLIQMSRDRAPFVDQSQSHSLFLREEDAARASTLANLLVRSYELGLKTIMYYCRIEKAADLGVMECKASAALSVPREEQNERSPAEQMPPRPMEPAQVAGPVDIMSKGPGEGPGGWCVPGGLEVCYKYRQLFSEDDLLETDGFTERACESCQ",binding result,[2],binds
"MBP-BORF2 R39E/D26R (enzyme, Epstein-Barr virus (EBV), UniProt P03190 1-826, looked up, Epstein-Barr virus BORF2, residues 1 to 826, codon-optimized gene; GenBank V01555.2; also called D26R/R39E BORF2; double mutant R39E/D26R; source: 293T, transfected; purified with amylose resin (SEC profiles); in lysate (co-IP); not shown: MBP, N-terminal, kept) MATTSHVEHELLSKLIDELKVKANSRPEADVLAGRLLHELKAESVTHTVAEYLEVFSDKFYDEEFFQMHRDELETRVSAFAQSPAYERIVSSGYLSALRYYDTYLYVGRSGKQESVQHFYMRLAGFCASTTCLYAGLRAALQRARPEIESDMEVFDYYFEHLTSQTVCCSTPFMRFAGVENSTLASCILTTPDLSSEWDVTQALYRHLGRYLFQRAGVGVGVTGAGQDGKHISLLMRMINSHVEYHNYGCKRPVSVAAYMEPWHSQIFKFLETKLPENHERCPGIFTGLFVPELFFKLFRDTPWSDWYLFDPKDAGDLERLYGEEFEREYYRLVTAGKFCGRVSIKSLMFSIVNCAVKAGSPFILLKEACNAHFWRDLQGEAMNAANLCAEVLQPSRKSVATCNLANICLPRCLVNAPLAVRAQRADTQGDELLLALPRLSVTLPGEGAVGDGFSLARLRDATQCATFVVACSILQGSPTYDSRDMASMGLGVQGLADVFADLGWQYTDPPSRSLNKEIFEHMYFTALCTSSLIGLHTRKIFPGFKQSKYAGGWFHWHDWAGTDLSIPREIWSRLSERIVRDGLFNSQFIALMPTSGCAQVTGCSDAFYPFYANASTKVTNKEEALRPNRSFWRHVRLDDREALNLVGGRVSCLPEALRQRYLRFQTAFDYNQEDLIQMSRDRAPFVDQSQSHSLFLREEDAARASTLANLLVRSYELGLKTIMYYCRIEKAADLGVMECKASAALSVPREEQNERSPAEQMPPRPMEPAQVAGPVDIMSKGPGEGPGGWCVPGGLEVCYKYRQLFSEDDLLETDGFTERACESCQ",binding result,[2],binds

# Reference: article PMC9045721, “Cryo-EM structure of the EBV ribonucleotide reductase BORF2 and mechanism of APOBEC3B inhibition” (Science Advances, 2022)
